This is an account of results in the supplement of paper PMC10201428.

± gives the standard deviation of the averaged measurements.

Data set [1] deals with VchCAST RNA-guided transposition machinery (E. coli BL21(DE3) host, lacZ target). As to the kind of experiment: relative integration efficiency (T-RL orientation) vs wild-type transposon end (log2 (normalized fold change)); transposon end mutated: left end; higher = more efficient transposition. How it is done: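 Pooled, barcoded VchCAST (Tn6677) mini-transposon donor libraries; each variable transposon-end sequence sits in a fixed pDonor mini-transposon context (10-bp barcode and cargo not included). Left- or right-end libraries were co-transformed with pEffector (TniQ-Cascade, TnsABC, lacZ crRNA, T7, 0.1 mM IPTG) into E. coli BL21(DE3) and grown 18 h at 37 C. T-LR and T-RL junction amplicons were sequenced; output/input barcode fold change was normalised to the mean of four wild-type barcodes and log2-transformed. Two biological replicates; zero-count/undetected variants carry floor values (-10 / -15), censored here. Barcode uncoupling by PCR recombination adds noise.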

For data set [2] the test system is unchanged. Put plainly: relative integration efficiency (T-RL orientation) vs wild-type transposon end (log2 (normalized fold change)); transposon end mutated: right end (5 bp flank + 75 bp right end); higher = more efficient transposition. The method in brief:
(§1)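 A T7-driven effector plasmid encoding a CRISPR array, tniQ-cas8-cas7-cas6 and tnsA-tnsB-tnsC was co-transformed into E. coli BL21(DE3) together with a pUC57 mini-transposon donor holding barcoded pools of 1549 left-end or 1849 right-end variants. Transformants were plated with 0.1 mM IPTG at 37°C for 18 h. Illumina sequencing of PCR-amplified input plasmids and genomic integration junctions gave barcode abundances, and relative integration efficiency is their output/input fold change, normalised to reference barcodes and log-transformed.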

Data set [3] has the same test system. As to the kind of experiment: relative integration efficiency (T-LR orientation) vs wild-type transposon end (log2 (normalized fold change)); transposon end mutated: right end (5 bp flank + 75 bp right end); higher = more efficient transposition. In a few lines: as §1

As for “AATGTTGTCAACCATAAAGTGATATTTAATAATTATTTATAATCAGCAACTTAACCACAAAACAACCATATATTGATATCTCACAAAACAACCATAAGTTGATATTTTTGTGAATCGAGTATTTCAGCAAAACTACTGCAGTAAGAAAGTTA”, the “relative integration efficiency (log2)” value in data set [1] is -8.1 ± 1.2. As for “AATGTTGTTCAACCATAAAGTGATATTTAATAATTATTTATAATCAGCAACTTAACCACAAAACAACCATATATTGATATCTCACAAAACAACCATAAGTTGATATTTTTGTGAATCGAGTATTTCAGCAAAACTACTGCAGTAAGAAAGTT”, the “relative integration efficiency (log2)” value in data set [1] was -7.77 ± 0.46. As for “AATGTTGTTGATGACCAACGCCTGGTCGCGGGGATAATTATTTATAATCAGCAACTTAACCACAAAAACCAACGCGCGGTCGCGAGAACAAAAACCAACGCCCTGTCGCGGGCTGTGAATCGAGTATTTCAGCAAAACTACTGCAGTAAGAA”, in data set [1], the “relative integration efficiency (log2)” value was under -10. As for “AATGTTGTTGATGACCAACGCCTGGTCGCGGGGATAATTATTTATAATCAGCAACTTAACCACAAAACAACCATATATTGATATCTCACAAAACAACCATAAGTTGATATTTTTGTGAATCGAGTATTTCAGCAAAACTACTGCAGTAAGAA”, in data set [1], the “relative integration efficiency (log2)” value is -8.86 ± 0.67. In the case of “AATGTTGTTGATGCAAAACGCCCTGTCGCGGGCCGCCGGCGGGCGCCGACTACCAGGCCAACACCCCACCAACGCGCGGTCGCGAGACACCCCACCAACGCCTGGTCGCGGGGGTGTCCGATCTGATTTCAGCAAAACTACTGCAGTAAGAA”, the “relative integration efficiency (log2)” value in data set [1] is under -10. Turning to “AATGTTGTTGATGCAACCATAAAATGATAATTAATAATTATTTATAATCAGCAACTTAACCACAAAATAATTATCATTTTATGGTTGACAAAACAACCATAAAATGATAATTATGTGAATCGAGTATTTCAGCAAAACTACTGCAGTAAGAA”, in data set [1], the “relative integration efficiency (log2)” value was -5.2 ± 1.6.

For “AATGTTGTTGATGCAACCATAAAGGTCGCGGGCCGCCGGCGGGCGCCGACTACCAGGCCAACACCCCACCAACGCGCGGTCGCGAGACACCCCACCAACGCCTGGTCGCGGGGGTGTCCGATCTGATTTCAGCAAAACTACTGCAGTAAGAA”, in data set [1], the “relative integration efficiency (log2)” value was under -10.

Regarding “AATGTTGTTGATGCAACCATAAAGTGAATAAATATAATTATTTATAATCAGCAACTTAACCACAAAACAACCATATATTGAATAGAGACAAAACAACCATAAGTTGAATAAAATGTGAATCGAGTATTTCAGCAAAACTACTGCAGTAAGAA”, the “relative integration efficiency (log2)” value in data set [1] was -4.14 ± 1.6. With “ACATTTGTTTCTACAACCATAAAATGATAATTACACCCATAAATTGATAATTATCACACCCATAAATTGATATTGCCTCTGATCATAGTCAGACCAACATTGCTACGACCCGTATTCGCACCGACAC”, the “relative integration efficiency (log2)” value is -1.06 ± 0.14 in data set [2] and -3.43 ± 0.18 in data set [3]. For “ACATTTTGGTATACAACCATAAAATGATAATTACACCCATAAATTGATAATTATCACACCCATAAATTGATATTGCCTCTGATCATAGTCAGACCAACATTGCTACGACCCGTATTCGCACCGACAC”, the “relative integration efficiency (log2)” value in data set [2] was -5.963 ± 0.038; in data set [3] it was -6.61 ± 2.1. Consider “ACATTTTGTGATACAACCATAAAATGATAATTACACCCATAAATTGATAATTATCACACCCATAAATTGATATTGCCTCTGATCATAGTCAGACCAACATTGCTACGACCCGTATTCGCACCGACAC”, for which the “relative integration efficiency (log2)” value in data set [2] is -6.54 ± 0.24; in data set [3] it was under -10. Consider “ACCGGGGTTGATACAACCATAAAATGATAATTACACCCATAAATTGATAATTATCACACCCATAAATTGATATTGCCTCTGATCATAGTCAGACCAACATTGCTACGACCCGTATTCGCACCGACAC”, for which the figures for the “relative integration efficiency (log2)” value in data set [2] and in data set [3] were -6.81 ± 0.49 and -5.64 ± 0.3, respectively.

On to “ACCGTTGTTGATACAACCATAAAATGATAATTACACCCATAAATTGATAATTATCACACCCATAAATTGATATTGCCTCTGATCATAGTCAGACCAACATTGCTACGACCCGTATTCGCACCGACAC”, for which the figures for the “relative integration efficiency (log2)” value in data set [2] and in data set [3] were -0.00193 ± 0.024 and 0.612 ± 0.13, respectively. On to “ACTAAAGTTGATACAACCATAAAATGATAATTACACCCATAAATTGATAATTATCACACCCATAAATTGATATTGCCTCTGATCATAGTCAGACCAACATTGCTACGACCCGTATTCGCACCGACAC”, for which the “relative integration efficiency (log2)” value was -6.65 ± 0.58 in data set [2] and -4.99 ± 1.1 in data set [3].

Turning to “ACTATTGTTGATACAACCATAAAATGATAATTACACCCATAAATTGATAATTATCACACCCATAAATTGATATTGCCTCTGATCATAGTCAGACCAACATTGCTACGACCCGTATTCGCACCGACAC”, the entries for the “relative integration efficiency (log2)” value in data set [2] and in data set [3] were 0.151 ± 0.07 and 0.436 ± 0.12, respectively. For “AGTAATGTTGATACAACCATAAAATGATAATTACACCCATAAATTGATAATTATCACACCCATAAATTGATATTGCCTCTGATCATAGTCAGACCAACATTGCTACGACCCGTATTCGCACCGACAC”, the “relative integration efficiency (log2)” value in data set [2] was -0.121 ± 0.05; in data set [3], -0.0802 ± 0.26. As to “AGTTTTGTTGATACAACCATAAAATGATAATTACACCCATAAATTGATAATTATCACACCCATAAATTGATATTGCCTCTGATCATAGTCAGACCAACATTGCTACGACCCGTATTCGCACCGACAC”, the “relative integration efficiency (log2)” value was 0.00539 ± 0.033 in data set [2] and 0.122 ± 0.29 in data set [3]. “CAAAATGTAAAAAAAACCATACGTTGATTTTACCACCCATAAATTGATAATTAAAACAACCATACCTTGAAATTGCTTATAAAGTGTACAACACTTGAGAAAGTTTACTACAGGTATGCACCGACAC”: the “relative integration efficiency (log2)” value was -4.977 ± 0.011 in data set [2] and -2.89 ± 0.71 in data set [3]. As to “CAAAATGTAAAAAAAACCATACGTTGATTTTACGAAACCATACGCTGAAATAAAAACAACCATACCTTGAAATTGCTTATGATCATAGTCAGACCAACATTGCTACGACCCGTATTCGCACCGACAC”, the results for the “relative integration efficiency (log2)” value in data set [2] and in data set [3] were -6.15 ± 0.21 and -4.98 ± 2.3, respectively. Consider “CAAAATGTAAAAAAAACCATACGTTGATTTTACGAAACCATACGCTGAAATAAAAACACCCATAAATTGATATTGCTTATAAAGTGTACAACACTTGAGAAAGTTTACTACAGGTATGCACCGACAC”, for which the “relative integration efficiency (log2)” value was -8.17 ± 0.95 in data set [2] and under -10 in data set [3]. Taken in the same sequence, the figures for “CAAAATGTAAAAAAAACCATACGTTGATTTTACGAAACCATACGCTGAAATAATCACAACCATACCTTGAAATTGCTTATAAAGTGTACAACACTTGAGAAAGTTTACTACAGGTATGCACCGACAC” were under -10 and under -10. Regarding “CAAAATGTAAAAACAACCATAAAATGATAATTAGAAACCATACGCTGAAATAAAAACAACCATACCTTGAAATTGCTTATAAAGTGTACAACACTTGAGAAAGTTTACTACAGGTATGCACCGACAC”, the “relative integration efficiency (log2)” value is -0.449 ± 0.47 in data set [2] and 2.48 ± 0.26 in data set [3]. With “CAAAATGTTGATACAACCATAAAATGATAATTACACCCATAAATTGATAATTATCACACCCATAAATTGATATTGCCTCTGATCATAGTCAGACCAACATTGCTACGACCCGTATTCGCACCGACAC”, the “relative integration efficiency (log2)” value in data set [2] is -0.331 ± 0.081; in data set [3], -0.0192 ± 0.23.

“CAATTTGTTGATACAACCATAAAATGATAATTACACCCATAAATTGATAATTATCACACCCATAAATTGATATTGCCTCTGATCATAGTCAGACCAACATTGCTACGACCCGTATTCGCACCGACAC”: the “relative integration efficiency (log2)” value was -0.1076 ± 0.00032 in data set [2] and 0.164 ± 0.0064 in data set [3]. With “CACGGTGTTGATACAACCATAAAATGATAATTACACCCATAAATTGATAATTATCACACCCATAAATTGATATTGCCTCTGATCATAGTCAGACCAACATTGCTACGACCCGTATTCGCACCGACAC”, the results for the “relative integration efficiency (log2)” value in data set [2] and in data set [3] were -0.141 ± 0.051 and 0.107 ± 0.15, respectively. For “CACGTTGTTGATACAACCATAAAATGATAATTACACCCATAAATTGATAATTATCACACCCATAAATTGATATTGCCTCTGATCATAGTCAGACCAACATTGCTACGACCCGTATTCGCACCGACAC”, the “relative integration efficiency (log2)” value in data set [2] is -0.27 ± 0.091; in data set [3], 0.451 ± 0.3. With “CGCGCTGTTGATACAACCATAAAATGATAATTACACCCATAAATTGATAATTATCACACCCATAAATTGATATTGCCTCTGATCATAGTCAGACCAACATTGCTACGACCCGTATTCGCACCGACAC”, the “relative integration efficiency (log2)” value came out at 0.101 ± 0.1 in data set [2] and 0.747 ± 0.2 in data set [3]. Consider “TATAATGTTGATACAACCATAAAATGATAATTACACCCATAAATTGATAATTATCACACCCATAAATTGATATTGCCTCTGATCATAGTCAGACCAACATTGCTACGACCCGTATTCGCACCGACAC”, for which the “relative integration efficiency (log2)” value in data set [2] was -0.277 ± 0.026; in data set [3], -0.134 ± 0.48. Take “TGATTTGTTGATACAACCATAAAATGATAATTACACCCATAAATTGATAATTATCACACCCATAAATTGATATTGCCTCTGATCATAGTCAGACCAACATTGCTACGACCCGTATTCGCACCGACAC”: the “relative integration efficiency (log2)” value in data set [2] is 0.00782 ± 0.012; in data set [3], 0.163 ± 0.18. Regarding “TGTAATGTTGATACAACCATAAAATGATAATTACACCCATAAATTGATAATTATCACACCCATAAATTGATATTGCCTCTGATCATAGTCAGACCAACATTGCTACGACCCGTATTCGCACCGACAC”, the “relative integration efficiency (log2)” value was -0.138 ± 0.063 in data set [2] and -0.169 ± 0.51 in data set [3]. Turning to “TGTATTGTTGATACAACCATAAAATGATAATTACACCCATAAATTGATAATTATCACACCCATAAATTGATATTGCCTCTGATCATAGTCAGACCAACATTGCTACGACCCGTATTCGCACCGACAC”, the entries for the “relative integration efficiency (log2)” value in data set [2] and in data set [3] were -0.0404 ± 0.0046 and 0.421 ± 0.14, respectively.
